Assay [1] addresses T1, VCAM-1/IgG1 fusion protein (seven extracellular immunoglobulin-like domains) (UniProt P19320).
T1 sequence (looked up): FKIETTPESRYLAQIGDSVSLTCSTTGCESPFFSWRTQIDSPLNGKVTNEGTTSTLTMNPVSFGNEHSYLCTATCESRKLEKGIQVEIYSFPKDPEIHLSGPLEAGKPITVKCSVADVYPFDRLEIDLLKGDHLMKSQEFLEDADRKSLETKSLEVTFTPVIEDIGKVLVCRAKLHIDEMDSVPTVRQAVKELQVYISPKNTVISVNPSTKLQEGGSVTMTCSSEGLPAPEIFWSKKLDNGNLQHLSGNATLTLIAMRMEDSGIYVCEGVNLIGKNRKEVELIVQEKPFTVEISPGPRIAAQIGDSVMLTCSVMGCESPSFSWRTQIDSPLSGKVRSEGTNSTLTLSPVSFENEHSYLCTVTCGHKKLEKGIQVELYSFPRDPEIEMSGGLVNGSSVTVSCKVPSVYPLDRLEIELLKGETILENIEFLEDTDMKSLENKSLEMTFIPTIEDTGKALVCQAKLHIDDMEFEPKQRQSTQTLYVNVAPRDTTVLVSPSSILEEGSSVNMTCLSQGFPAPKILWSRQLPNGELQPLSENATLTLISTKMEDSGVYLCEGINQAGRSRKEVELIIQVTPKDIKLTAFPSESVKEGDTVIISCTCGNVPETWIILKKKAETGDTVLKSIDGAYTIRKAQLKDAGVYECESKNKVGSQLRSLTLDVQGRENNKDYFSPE
Description: ELISA, Iαd/IgG4 on immobilized CAM/IgG, detection with anti-IgG4 HP6023. In general terms: ELISA stands for enzyme-linked immunosorbent assay.

Assay [2] has as its target mutant two domain VCAM-1 fused to human immunoglobulin Fc (substitution at residue 40) (human) (UniProt P19320). In words: adhesion of transfected CHO cells to immobilized CAM, crystal violet, A570.
Assay [3] addresses recombinant VCAM-1 (commercial preparation, R & D Systems) (UniProt P19320). Description: cell-based or functional assay.
For assay [4], the target named is LFA-1 leucine zipper fusion protein (UniProt P20701). Description: ELISA, plate format; sentence unclear.
In assay [5] the target is immobilized CD11b/CD18 (human) (UniProt P05107). In words: ELISA, plate format; sentence unclear.
Assay [6] has as its target soluble ICAM-R/IgG1 fusion protein (UniProt P32942). Description: ELISA, soluble integrin in supernatant on immobilized ICAM/Ig.

Four substances from patent EP2182008A2 can be followed below.

human αd I domain/IgG4 fusion protein, sequence (P01861 other isoform, or with tags, fused parts or gaps): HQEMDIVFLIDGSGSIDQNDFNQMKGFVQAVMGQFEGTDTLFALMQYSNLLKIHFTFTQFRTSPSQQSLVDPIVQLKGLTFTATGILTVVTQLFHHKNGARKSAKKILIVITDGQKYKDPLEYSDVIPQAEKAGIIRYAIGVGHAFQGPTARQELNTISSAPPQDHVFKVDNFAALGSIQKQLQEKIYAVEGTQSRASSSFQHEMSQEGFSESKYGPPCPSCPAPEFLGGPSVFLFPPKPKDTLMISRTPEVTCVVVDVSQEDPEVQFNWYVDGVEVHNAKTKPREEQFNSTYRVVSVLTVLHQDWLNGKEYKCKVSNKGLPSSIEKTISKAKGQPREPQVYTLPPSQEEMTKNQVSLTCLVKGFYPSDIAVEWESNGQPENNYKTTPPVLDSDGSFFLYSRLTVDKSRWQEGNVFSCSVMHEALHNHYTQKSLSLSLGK
soluble ICAM-R/IgG1 fusion protein, sequence (P32942 30-485 limits assumed): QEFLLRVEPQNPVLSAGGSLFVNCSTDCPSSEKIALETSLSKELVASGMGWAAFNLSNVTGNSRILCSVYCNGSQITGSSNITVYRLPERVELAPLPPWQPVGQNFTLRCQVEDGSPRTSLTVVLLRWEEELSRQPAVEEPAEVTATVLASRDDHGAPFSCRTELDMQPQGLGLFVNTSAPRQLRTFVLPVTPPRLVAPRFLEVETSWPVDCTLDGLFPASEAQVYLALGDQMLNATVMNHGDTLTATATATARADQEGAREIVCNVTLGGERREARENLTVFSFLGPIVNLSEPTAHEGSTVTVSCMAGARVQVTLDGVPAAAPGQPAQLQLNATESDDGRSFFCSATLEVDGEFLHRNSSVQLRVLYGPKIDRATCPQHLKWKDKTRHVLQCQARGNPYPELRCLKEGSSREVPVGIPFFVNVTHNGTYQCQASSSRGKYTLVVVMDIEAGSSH

In assay [1], “human αd I domain/IgG4 fusion protein (from UniProt P01861 99-327) (Fc fusion)” yielded a fold higher than background of 7 to 10 fold.

“human αd/CD18 expressed on transfected cells (from UniProt P05107 23-769) (receptor)”: the binding as percent of that with wild-type VCAM-1 in assay [2] amounted to 50%.

On to “native human αd/CD18 on human cells (from UniProt Q13349 18-1161; P05107 23-769) (receptor)”, for which, in assay [3], the binding rate of IL-5 cultured eosinophils to immobilized VCAM-1 amounted to 28.8%, the binding rate of IL-5 cultured eosinophils to immobilized VCAM-1 in the presence of a monoclonal antibody against α4 was 18.1% and the binding rate of IL-5 cultured eosinophils to immobilized VCAM-1 in the presence of an anti-CD18 monoclonal antibody came out at 17.1%.

For the substance “soluble human αd/CD18 leucine zipper heterodimer (from UniProt P05107 23-700) (receptor)”, the fold greater than background binding in assay [4] was found to be 5 fold; in assay [5], 15 fold. The fold over control well containing no antibody in assay [6] is 10 fold.
